Test results: paper PMC10397344

System: MLH1 wt;PMS2 wt
Test: EMSA
Conditions: untreated; ATP; 20 mM HEPES pH 7.5, 40 ug/ml BSA, 1 mM DTT, 100 mM NaCl, 1.5 ul of 10 mM ATP added, 95 ng DNA, on ice 5 min; 4% native PAGE, 0.5xTBE pH 7.5

GT-DNA-substrate (G/T mismatch)
binding signal (% (reference)): 100
